Assay results from article PMC11500415, “Chemical inhibition of stomatal differentiation by perturbation of the master-regulatory bHLH heterodimer via an ACT-Like domain” (Nature Communications, 2024).
Values joined by “and” are separate entries in the source; they are usually repeats but may differ in a detail not shown here. Identical values can stand only once.

T1: SCREAM (SCRM), recombinant full-length protein (1-494) (A. thaliana, UniProt Q9LSE2 1-494)
T1 construct: SCRM (ICE1), A. thaliana, residues 1-494; called full-length in the results; The methods describe thrombin removal of GST for all recombinant proteins; For the BLI runs of SCRM with MUTE one partner must have kept GST (anti-GST probes); also called ICE1; source: E. coli BL21, purified (glutathione resin, thrombin digestion, Superdex-200); not shown: GST, N-terminal, cleaved
T1 sequence (looked up): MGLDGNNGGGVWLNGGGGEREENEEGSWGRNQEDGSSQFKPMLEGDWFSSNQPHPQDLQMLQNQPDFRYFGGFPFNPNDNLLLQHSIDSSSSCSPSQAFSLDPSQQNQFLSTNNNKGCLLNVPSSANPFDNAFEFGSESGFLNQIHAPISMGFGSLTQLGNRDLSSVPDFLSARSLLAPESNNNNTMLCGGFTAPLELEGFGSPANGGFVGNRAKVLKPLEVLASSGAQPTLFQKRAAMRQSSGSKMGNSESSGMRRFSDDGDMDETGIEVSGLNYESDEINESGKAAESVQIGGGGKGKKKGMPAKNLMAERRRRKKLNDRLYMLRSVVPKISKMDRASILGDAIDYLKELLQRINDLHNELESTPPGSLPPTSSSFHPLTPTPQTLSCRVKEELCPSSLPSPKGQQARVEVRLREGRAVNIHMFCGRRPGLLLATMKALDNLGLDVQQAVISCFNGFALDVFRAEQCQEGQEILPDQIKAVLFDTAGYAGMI


Experiments:
[1] = test system: Commelina benghalensis stomatal opening induced by light; test: Measurement of stomatal opening; format: in vivo; details: leaf discs 1-6
Description: The experiments were performed as described previously[30],[68]. Briefly, Stomidazolone or ABA were added to a multi-well plate with basal buffer [5 mM MES/bistrispropane (pH 6.5), 50 mM KCl, and 0.1 mM CaCl2] to be diluted to a final concentration of 50 or 20 µM, respectively. C. benghalensis plants were incubated in the dark overnight; then, 4 mm diameter leaf discs were excised from fully expanded leaves using a hole punch (Biopsy Punch, Kai Medical). Samples were immersed in a basal buffer containing compounds for 30 min before being exposed to light (150 µmol m^−2 s^−1 red light and 50 µmol m^−2 s^−1 blue light) for 3 h. The stomatal apertures were observed using a stereoscopic microscope (BX43; Olympus). The microscopic images were acquired with a charge-coupled device (CCD) camera (DP27; Olympus), followed by autofocus image processing using cellSens standard software (Olympus). Measurement of stomatal apertures of C. benghalensis was performed by using an automation program, DeepStomata[69].

[2] = test system: Arabidopsis wild-type (WT) seedlings; test: Stomatal development bioassay, seedlings in liquid culture; format: in vivo; details: 50 μM
Description: Arabidopsis accession Columbia (Col-0) was used as wild-type. […] Their genotype and transcript reduction were confirmed. The presence of transgenes/mutant alleles were confirmed by genotyping. For liquid culture with Stomidazolone (AYSJ929, compound 3), the analogs (AYSJ1059 (compound 5) and AYSJ1061 (compound 6)), degraded compound lzx103 (compound 4), and SIM3* (compound 7), all compounds were dissolved in dimethyl sulfoxide (DMSO, Molecular biology grade, Fujifilm Wako, Japan 046-21981), Col-0 seeds were sown in 96-well plates (TL5003; True Line) containing 95 μL of 1/2 MS media containing 0.5% sucrose with rotary shaking at 140 rpm under continuous light at 22 °C. Five μL of compounds were dissolved in DMSO at 10 mM and diluted with liquid 1/2 MS media to 1 mM and added on 1-day-old seedlings (final concentration, 50 μM). Seedlings were incubated for 8 days, and at day 9 seedling abaxial cotyledons were observed through confocal microscopy. For liquid culture of scrm-D_S343 and scrm-D_S423, 1/2 MS liquid media without sucrose was used. For the solid culture, 0, 20, 50 or 100 μM Stomidazolone were solidified with low-melting agarose (5805S, PrimeGelTM Agarose LMT 1-20 K, TAKARA Bio). Briefly, 1/2 MS salt, 0.5% sucrose, and 0.8% low melting agarose were mixed in water and autoclaved. After cooling the medium at around 30 °C, Stomidazolone (500x, dissolved in DMSO) was added and poured into 90 mm petri dishes (Asnol Petri Dish JP φ90 x 15 mm, 3-1491-01, AS ONE). Col-0 seeds were sown on Stomidazolone-containing 1/2 MS agarose media and grown under continuous light for 9 days.
For confocal microscopy, cell peripheries of seedlings were visualized with propidium iodide (Sigma, P4170). Images were acquired using LSM800 or LSM700 (Zeiss) using a 20x lens. The GFP, YFP reporter and PI signals were detected with excitation at 488 nm and an emission filter of 410 to 546 nm, at 488 nm and an emission filter of 410 to 546 nm, and with excitation at 561 nm and 582–617 nm emission range, respectively. Raw data were collected with 1024 × 1024 pixel images. For qualitative image presentation, Adobe Photoshop CC was used to trim and uniformly adjust the contrast/brightness.
For quantitative analysis of the abaxial leaf epidermis, confocal images were taken on the days after germination as indicated in the Figure legends. Preparation of images was done as described previously[32],[70]. For counting epidermal cell types, stomatal density, stomatal precursor cells (meristemoids), total stomata-lineage cells (stomata and meristemoids) were calculated by counting cell types in an area of 0.4 mm^2 (0.63 mm × 0.63 mm) and plotted as per mm^2. A series of Z-stack confocal images was obtained to obtain images covering the epidermis and capturing GFP/YFP signal from the reporter lines. The area and the number of epidermal cells were quantified by using FIJI-ImageJ. Statistical analyses were performed using R ver. 4.0.2. Sample sizes (n) are indicated and defined in each legend. For the multiple sample comparison, 1-way ANOVA was performed followed by a post hoc Tukey HSD test. For the two-sample comparison, Student’s T-test was performed. Graphs were generated using R ggplot2 package. For all boxplots, each box represents IQR (interquartile range), in which top, middle line, and bottom indicating 75, 50, and 25 percentiles, respectively, and the bar representing maximum to minimal values. Each magenta dot represents jittered individual data point. The datapoints that go beyond the bar are outliers, which are indicated as black dots. If the data point is greater than Q3 + 1.5*IQR (above the third quartile is greater than 1.5 times of the interquartile range) or less than Q1 − 1.5*IQR, that data point is classified as outlier. The color of Boxplot graph was based on ColorBrewer.org. The value of n, the number of each experiment or samples, the means of error bars, and how statistical significance was defined are indicated in a relevant figure legend. […]

[3] = biological target: T1, SCREAM (SCRM), recombinant full-length …; test: BLI; SCRM with MUTE or MUTE mutants, no compound; Octet Red96, anti-GST probes loaded with 500 nM GST-tagged protein; 30 °C; 1x PBS, 2% DMSO, 0.02% Tween20; 1:1 model; KD (SS) from steady-state analysis; details: both partners purified
[4] = biological target: T1, SCREAM (SCRM), recombinant full-length …; test: BLI; SCRM with MUTE in the presence of AYSJ1059 (5); Octet Red96, anti-GST probes loaded with 500 nM GST-tagged protein; 30 °C; 1x PBS, 2% DMSO, 0.02% Tween20; 1:1 model; KD (SS) from steady-state analysis; details: both partners purified
[5] = biological target: T1, SCREAM (SCRM), recombinant full-length …; test: BLI; SCRM with MUTE in the presence of AYSJ1061 (6); Octet Red96, anti-GST probes loaded with 500 nM GST-tagged protein; 30 °C; 1x PBS, 2% DMSO, 0.02% Tween20; 1:1 model; KD (SS) from steady-state analysis; details: both partners purified
[6] = biological target: T1, SCREAM (SCRM), recombinant full-length …; test: BLI; SCRM with MUTE or MUTE mutants in the presence of Stomidazolone (3) (MUTE pre-incubated); Octet Red96, anti-GST probes loaded with 500 nM GST-tagged protein; 30 °C; 1x PBS, 2% DMSO, 0.02% Tween20; 1:1 model; KD (SS) from steady-state analysis; details: both partners purified

Kd [3] | koff [3] | kon [3] | Kd [6] | koff [6] | kon [6] | Molecule | further results
– | – | – | – | – | – | O=C1C(c2ccccc2)=NC(NS(=O)(=O)c2ccccc2)(c2ccccc2)N1S(=O)(=O)c1ccccc1 (racemic) [AYST929] | stomatal movement, mean from 2 images from 1 leaf disc ([1]; AYST929 50 µM): 12.3654 and 10.3065 and 11.5398 and 6.9444 and 13.0998 and 7.007
– | – | – | – | – | – | CC1=CC(=O)CC(C)(C)C1(O)/C=C/C(C)=C\C(=O)O (centres unmarked) [ABA, reference compound] | stomatal movement, value per image ([1]; ABA 20 µM, 2 images per leaf disc): 0; stomatal movement, mean from 2 images from 1 leaf disc ([1]; ABA 20 µM): 0
– | – | – | – | – | – | N=C(NS(=O)(=O)c1ccccc1)c1ccccc1 [lzx103] | effect on stomatal development (in words) ([2]; WT seedlings, liquid culture): did not cause any effects; Number of stomata per 1 mm2 of cotyledon abaxial epidermis ([2]; WT, single seedlings n=8 (Fig. S3d), listed as Izx-103): 199 per 1 mm2 and 211 per 1 mm2 and 202 per 1 mm2 and 216 per 1 mm2 and 194 per 1 mm2 and 192 per 1 mm2 and 175 per 1 mm2
6.8 ± 0.5 nM | 0.000147 s⁻¹ | 24200 M⁻¹ s⁻¹ | 755 ± 9.5 nM | 0.00859 s⁻¹ | 11400 M⁻¹ s⁻¹ | MUTE, recombinant full-length protein (1-202), as used in BLI with SCRM (natural protein, A. thaliana, UniProt Q9M8K6 1-202, looked up, BLI probes were anti-GST and loaded with 500 nM GST-tagged protein; source: E. coli BL21, purified (glutathione resin)) MSHIAVERNRRRQMNEHLKSLRSLTPCFYIKRGDQASIIGGVIEFIKELQQLVQVLESKKRRKTLNRPSFPYDHQTIEPSSLGAATTRVPFSRIENVMTTSTFKEVGACCNSPHANVEAKISGSNVVLRVVSRRIVGQLVKIISVLEKLSFQVLHLNISSMEETVLYFFVVKIGLECHLSLEELTLEVQKSFVSDEVIVSTN | Kd [4]: 8.8 ± 0.6 nM; koff [4]: 0.000188 s⁻¹; kon [4]: 21300 M⁻¹ s⁻¹; Kd [5]: 12.8 ± 0.8 nM; koff [5]: 0.000234 s⁻¹; kon [5]: 18200 M⁻¹ s⁻¹
26.5 ± 3.7 nM | 0.000414 s⁻¹ | 15600 M⁻¹ s⁻¹ | 96.5 ± 12.8 nM | 0.000336 s⁻¹ | 3480 M⁻¹ s⁻¹ | MUTE_R133A_R134A_E162A_E163A, recombinant (natural protein, A. thaliana, UniProt Q9M8K6 1-202, looked up, MUTE, A. thaliana, with R133A, R134A, E162A and E163A; source: E. coli BL21, purified (glutathione resin)) MSHIAVERNRRRQMNEHLKSLRSLTPCFYIKRGDQASIIGGVIEFIKELQQLVQVLESKKRRKTLNRPSFPYDHQTIEPSSLGAATTRVPFSRIENVMTTSTFKEVGACCNSPHANVEAKISGSNVVLRVVSAAIVGQLVKIISVLEKLSFQVLHLNISSMAATVLYFFVVKIGLECHLSLEELTLEVQKSFVSDEVIVSTN | –
11.5 ± 2.6 nM | 0.000334 s⁻¹ | 29000 M⁻¹ s⁻¹ | 30.5 ± 4.8 nM | 0.000634 s⁻¹ | 20700 M⁻¹ s⁻¹ | MUTE_E162A_E163A, recombinant (natural protein, A. thaliana, UniProt Q9M8K6 1-202, looked up, MUTE, A. thaliana, with E162A and E163A; source: E. coli BL21, purified (glutathione resin)) MSHIAVERNRRRQMNEHLKSLRSLTPCFYIKRGDQASIIGGVIEFIKELQQLVQVLESKKRRKTLNRPSFPYDHQTIEPSSLGAATTRVPFSRIENVMTTSTFKEVGACCNSPHANVEAKISGSNVVLRVVSRRIVGQLVKIISVLEKLSFQVLHLNISSMAATVLYFFVVKIGLECHLSLEELTLEVQKSFVSDEVIVSTN | –
22.5 ± 1.8 nM | 0.000256 s⁻¹ | 11300 M⁻¹ s⁻¹ | 62.5 ± 8.2 nM | 0.000834 s⁻¹ | 13300 M⁻¹ s⁻¹ | MUTE_R133A_R134A, recombinant (natural protein, A. thaliana, UniProt Q9M8K6 1-202, looked up, MUTE, A. thaliana, with R133A and R134A; source: E. coli BL21, purified (glutathione resin)) MSHIAVERNRRRQMNEHLKSLRSLTPCFYIKRGDQASIIGGVIEFIKELQQLVQVLESKKRRKTLNRPSFPYDHQTIEPSSLGAATTRVPFSRIENVMTTSTFKEVGACCNSPHANVEAKISGSNVVLRVVSAAIVGQLVKIISVLEKLSFQVLHLNISSMEETVLYFFVVKIGLECHLSLEELTLEVQKSFVSDEVIVSTN | –
